This is an account of results in article PMC2817712.

pKd: −log10 of the molar value.

The target in the assay is CheY6 (wild type) with an engineered C-terminal biotinylation tag, for SPR surfaces (R. sphaeroides). In words: SPR; Biacore T100, 25°C; response regulator biotinylated in a C-terminal tag and held on streptavidin (200-1,500 RU); CheA3P1 injected at 120 nM to 2 mM; standard buffer (30 mM Hepes pH 7.5, 150 mM NaCl, 5 mM sodium acetate, 2 mM manganese chloride, 2 mM TCEP) with 0.05% Tween 20; equilibrium binding, 1:1 Langmuir model.
CheY6 (wild type) with an engineered C-terminal biotinylation tag, for SPR surfaces (R. sphaeroides), sequence (Q8KLS1 entry or part of it, stated change not applied): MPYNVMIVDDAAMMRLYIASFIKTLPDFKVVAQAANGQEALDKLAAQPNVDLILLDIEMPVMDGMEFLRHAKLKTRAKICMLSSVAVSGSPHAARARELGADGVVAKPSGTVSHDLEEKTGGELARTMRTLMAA

Take “CheA3P1, the isolated P1 (Hpt, histidine-containing phosphotransfer) domain of CheA3 (residues 1-135), unphosphorylated (domain or fragment)”: the pKd (commonly −log10 of the Kd, conventionally taken in molar units) is 3.66.
